Numbering of substitutions follows the chain as printed.
T1: soluble form of the extracellular domain of human TweakR (human, UniProt Q9NP84 28-80)
T1 construct: also called soluble TweakR extracellular domain
T1 sequence: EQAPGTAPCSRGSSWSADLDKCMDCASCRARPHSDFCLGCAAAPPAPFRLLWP

T2: mouse TweakR (mouse, UniProt Q9CR75 28-80, limits assumed)
T2 construct: also called mouse TweakR protein
T2 sequence (looked up): T1 sequence with A7S, R11S, R29P, P47H

T3: TweakR on cells (TweakR-expressing cells, TweakR transfectant cell line, A375 melanoma cells, tumor tissue) (human, UniProt Q9NP84 28-129)
T3 sequence: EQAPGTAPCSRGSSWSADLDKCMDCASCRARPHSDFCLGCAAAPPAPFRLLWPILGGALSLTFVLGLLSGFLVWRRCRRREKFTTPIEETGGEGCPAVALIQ

B1: humanized anti-TweakR antibody PDL400 (antibody, V domains shown)
VH: QVQLVQSGAEVKKPGASVKISCKVSGYTFTDFIIAWVKQAPGKGLEWIGEIYPGTGRTYYSEKFRGKATLTADKSTSTAYMELSSLRSEDTAVYYCARRTIYYDYDGDYWGQGTTVTVSS
VL: DIVMTQSPLSLPVTPGEPASISCRSSKSLLHSNGITYLYWYLQKPGQSPQLLIYQMSNLASGVPDRFSSSGSGTDFTLKISRVEAEDVGVYYCAHNLELPWTFGGGTKVEIK
notes: constant regions not expressly stated
B2: murine anti-TweakR antibody 19.2.1 (antibody, mouse IgG2a, V domains shown)
VH: EVKLEESGGGLVQPGGSMKLSCVASGFTFSSYWMSWVRQSPEKGLEWVAEIRLKSDNYATHYAESVKGKFTISRDDSKSRLYLQMNSLRAEDTGIYYCTGYYADAMDYWGQGTSVTVSS
VL: DIVLTQSPASLAVSLGQRATISCRASQSVSTSSYSYMHWYQQKPGQPPKLLIKYASNLESGVPARFSGSGSGTDFTLNIHPVEEEDTATYYCQHSWEIPYTFGGGTKLEIK
B3: murine anti-TweakR antibody 136.1 (antibody, V domains shown)
VH: EVKLEESGGGLVQPGGSMKLSCVASGFTFNNYWMSWVRQSPEKGLEWLAEIRLKSDNYATHYAESVKGKFTISRDDSKSRLYLQMNNLRAENTGIYYCTGGFADYFDYWGQGTTLTVSS
VL: DIVLTQSPASLTVSLGQRATISCRASQSVSTSSYSYMQWYQQRPGQPPKLLIKYATNLDSGVPARFSGSGSGTDFTLNIHPVEEEDAATYYCQHSWEIPYTFGGGTKLEIKR
notes: Mouse monoclonal antibody
B4: murine anti-TweakR antibody 18.3.3 (antibody, V domains shown)
VH: EVKLGESGGGLVQPGGSMKLSCVASGFPFTKYWMNWVRQSPEKGLEWVAEIRLKSDNYATHYAESAKGRFTISRDDSRSSVYLQMNNLRAEDTAIYYCSPTYADTMDYWGQGTSVTVSS
VL: B3 VL with T12A, R24K, S33T, P47S, T56S, N57K, A87T, I98L, K107R
notes: Mouse monoclonal antibody
B5: humanized anti-TweakR antibody PDL192 (antibody, human IgG1, V domains shown)
VH: EVQLVESGGGLVQPGGSLRLSCAASGFTFSSYWMSWVRQAPGKGLEWVAEIRLKSDNYATHYAESVKGRFTISRDDSKNSLYLQMNSLRAEDTAVYYCTGYYADAMDYWGQGTLVTVSS
VL: DIQMTQSPSSLSASVGDRVTITCRASQSVSTSSYSYMHWYQQKPGKAPKLLIKYASNLESGVPSRFSGSGSGTDFTLTISSLQPEDFATYYCQHSWEIPYTFGGGTKVEIK
B6: murine anti-TweakR antibody ITEM-1 (antibody, V domains shown)
VH: EVKLEESGGGLVQPGGSMKLSCVASGFSFSNYWMNWVRQSPEKGLEWVAEIRLKSNNYATHYAESVKGRFTISRHDSKSSVYLQMNNLRAEDTGIYYCTRAYADYFDYWGQGTTLTVSS
VL: B3 VL with T12V, S33T, Q38H, R43K, L50I, T56S, D59E, A87T
B7: murine anti-TweakR antibody ITEM-3 (antibody, V domains shown)
VH: EVKLEESGGGLVQPGGSMKLSCVVSGLTFSRYWMSWVRQSPEKGLEWVAEIRVKSDNYATTHYAESVKGKFTVSRDDSKSRLYLQMSSLRPEDTGIYYCIGYYADAMDYWGQGTSVTVSS
VL: B3 VL with T12V, Q38H, R43K, T56S, N57K, A87T, Y100W, L108M

Target: T1, soluble form of the extracellular …
Assay: Biacore; antibody captured by immobilized anti-Fc, soluble TweakR extracellular domain injected
Procedure: The relative binding affinities of various mouse and humanized anti-TweakR antibodies were assessed in a Biacore assay using a soluble form of the extracellular domain of human TweakR. Briefly, goat anti-mouse Fc antibody or goat anti-human Fc was first immobilized to the biosensor surface followed by capture of antibody on the test surface. Subsequently, the soluble form of the extracellular domain of human TweakR was injected to measure binding to, and dissociation from, antibody.

| Binder | Kd |
| --- | --- |
| B1 | 0.58 nM |
| B2 | 7.12 nM |
| B3 | 0.68 nM |
| B4 | 0.23 nM |

Target: human TweakR (R56P) (human, UniProt Q9NP84 28-80, limits assumed)
Assay: binding assay read as OD650, single bar per antibody and target; format and antibody concentration not given

| Binder | binding result |
| --- | --- |
| B4 | binds |

Target: T2, mouse TweakR
Assay: as above

| Binder | binding result |
| --- | --- |
| B4 | binds |

Target: T3, TweakR on cells (TweakR-expressing …)
Assay: cell-based or functional assay

| Binder | agonist activity (IL-8 release assay) |
| --- | --- |
| B1 | ~8% |
| B5 | ~25% |
| B2 | ~39% |
| B6 | ~25% |
| B3 | ~278% |
| B4 | ~14% |
| B7 | ~37% |

Source: patent publication US20090074762A1 (PDL BIOPHARMA, published 2009)
